Results taken from the supplement of paper PMC9170038.

System: MS2 coat protein
Assay: apparent KD of MS2 coat protein; designed switch direction (-1 OFF switch, 1 ON switch): -1; higher = weaker reporter binding
Summary of the method: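 Designed RNA switches with common flanks were made on Illumina chips by stalled E. coli RNA polymerase. Titration with SNAP-549-labelled MS2 coat protein doubled from 0.7 or 1.5 nM up to 3 µM. Apparent KD is each design's median over clusters after curve-fitting normalised fluorescence.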

[1] = input ligand: microRNA oligo, concentration not stated
[2] = Eterna round: R95, input ligand: microRNA oligo, concentration not stated
[3] = Eterna round: R95, input ligand: FMN 200 uM
[4] = Eterna round: R95, input ligand: none

Sequence | apparent KD of MS2 coat protein (input ligand: FMN 200 uM) [nM] | apparent KD of MS2 coat protein [1] [nM] | apparent KD of MS2 coat protein (input ligand: none) [nM] | apparent KD of MS2 coat protein [2] [nM] | apparent KD of MS2 coat protein [3] [nM] | apparent KD of MS2 coat protein [4] [nM]
GGUCAGAUGGUAGGAUAUCCAUAUCGAGUGACCUUUUCAUAACAUGAGGAUCACCCAUGUCGGUGGGAGAAGGGCCGUACGGCG [salish99_ExNG02_R04_017] (Eterna round: R96, puzzle: Exclusion NG 2) | 120 | 79 | 112 | – | – | –
GUCAUGUUAGGAUAUCUGGCAUGUGACUUCGGUCACUGUCCAGAGAAGGAACAUGAGGAUCACCCAUGUUGGAC [Ex4-3: 54] (puzzle: Exclusion 4) | – | – | – | 48.2 | – | –
CCUCAUGGGCAGGAUAUCAGUCGAAAGUUUAUAUGAGAAGGGCCAACAUGAGGAUCACCCAUGUAAUCCCUGAC [EX6 C.14] (Eterna round: R97, puzzle: Exclusion 6) | 66.7 | – | 27.8 | – | – | –
UUUACAAGCUAUUGAUCCCACAUGAGGAUCACCCAUGUUGCUGCCGGUGACGGUAGCAUAACAAUUGCUCGUCUUAU [JL TOV1 3.56] (Eterna round: R97, puzzle: Sensor, turn-off variant 1) | 660 | – | 797 | – | – | –
AGAUGCUCAAGUCGACAUGAGGAUCACCCAUGUACAGUUAAUGAGGAUAUCCGAGAUAAAUAAUAGGAGAAGGUAUGAUCAUGA [Ex NG3 #5] (Eterna round: R96, puzzle: Exclusion NG 3) | 86.7 | 175 | 59.5 | – | – | –
AGGUCACAUGAGGAUCACCCAUGUCAGGAUAUCGUCACUGGAGCUUCGGCUCCAGUGACGAGAAGGGACAAUUA [E1/6-A1] (Eterna round: R97, puzzle: Exclusion 1) | 499 | – | 80.5 | – | – | –
GUGUAGUCAGGAUAUACAUAGGAAGAUAAUAUAAUAUAAGUACAUGAGGAUCACCCAUGUAGAAGGGACAGUGU [Excluse me!! 9 - Jieux - Exclusion 2] (puzzle: Exclusion 2) | – | – | – | 35.6 | – | –
UGAACUGUAGGAUAUACAUGAGGAUCACCCAUGUCCCUUCGAUGAGGUCCCACCACGUGUAGAAGGAUGGAAGA [Eternabot (L1) Solution 11] (Eterna round: R97, puzzle: Exclusion 3) | 36.8 | – | 42.2 | – | – | –
AAGAAGAAGUAAGGAUAUGAAGAUCUGGUGGUGACAUGAGGAUCACCCAUGUGAAAACAAUAAGAUCAGAAGGUAUAAGAAGAA [AK ExNG2-3.1] (Eterna round: R96, puzzle: Exclusion NG 2) | 81 | 70.4 | 87.9 | – | – | –
UAACUACAUGAGGAUCACCCAUGUCAGGAUAUGCCAUUAAAUUAACAUCAACAUACGGGUAGAAGGGACAACGU [1st #2] (Eterna round: R97, puzzle: Exclusion 1) | 22.2 | – | 25.6 | – | – | –
GCGGUACAUGAGGAUCACCCAUGUCAGGAUAUCCGCUGUAACUUAAUAAAUAAGCGGUGGAGAAGGGACUUCGC [-18.24, -17.54 kcal, 30% A] (Eterna round: R97, puzzle: Exclusion 1) | 34.2 | – | 27.6 | – | – | –
AUAAUUUAAGUGAGGAUAUACCUAUGGAAACAUAGGUAGAAGGCACAUGAGGAUCACCCAUGUUUUUACACAAA [Fiskers BMX 4 - 2] (puzzle: Brourd's mod of Exclusion 4) | – | – | – | 18.1 | – | –
AUAUUUAGCUUUUUGUGAAACAUGAGGAUCACCCAUGUCCUCAUAACUGGACAUUUAAGUCUAGAAGCUCGUCUUAU [Last end dangle 3] (Eterna round: R97, puzzle: Sensor, turn-off variant 1) | 475 | – | 553 | – | – | –
GAUUGACAUGAGGAUCACCCAUGUGAGGAUAUCGGCUGGACCGUGUUGGCUUGCUUUCCGAGAAGGCGCAUAGG [Exclusion 1 V50] (puzzle: Exclusion 1) | – | – | – | 36.9 | 81.7 | 45.9
AGUACUAACACGAGAGUGUUAGUACAAUAAGCUUGUGAAACAUGAGGAUCACCCAUGUCCUCAUAAGCUCGUCUUAU [salish99_TOv2_r3_029] (puzzle: Sensor v3, turn-off variant 2) | – | – | – | 949 | 18.1 | 17.2
GCGCCAUCGUGAGAUGGCGUAUAAACAUGAGGAUCACCCAUGUAGGAUAUCGAUUGCUUUGCAGUCGAGAAGGGCAUUAUAAGU [JL ENG3 3.75] (Eterna round: R96, puzzle: Exclusion NG 3) | 29.2 | 19 | 28.4 | – | – | –
AGCUGUGGCCGAGGAUAUUCAGCCUUAAAUACCGACGUAUAGUCGGACAUGAGGAUCACCCAUGUGGAGAAGGCGGUCUCAGCA [Eli eng2 - 046] (Eterna round: R96, puzzle: Exclusion NG 2) | 76.4 | 34.5 | 48.4 | – | – | –

Sequence | apparent KD of MS2 coat protein (input ligand: FMN 200 uM) [nM] | apparent KD of MS2 coat protein [1] [nM] | apparent KD of MS2 coat protein (input ligand: none) [nM] | apparent KD of MS2 coat protein [2] [nM] | apparent KD of MS2 coat protein [3] [nM] | apparent KD of MS2 coat protein [4] [nM]
UUUGAAAAUGUAGGAUAUGGAAUAGGUAAGUAGCCAGAAGGACAUGAGGAUCACCCAUGUAAGAACAUAGGGAAAGAUAUGUUU [No clue what I'm doing] (Eterna round: R96, puzzle: Exclusion NG 1) | 90.8 | 32.9 | 44.7 | – | – | –
UGUUGUCGCGUAGGAUAUUGUCAACAGGCAAUAGGAUAUGCGAAAGCAGAAGGAUCGCCAACAGGCGAGAAGGACGGGACAACU [pwkr exNG2 2xF7 2xFMN.5] (Eterna round: R96, puzzle: Exclusion NG 2) | 142 | 913 | 1140 | – | – | –
CAGCUGAAUGUCAGGAUAUCUAGAGCCUCGGCUCUAGAGAAGGGACAUGAGGAUCACCCAUGUCACUCCAGCUG [BmEx4/3-B2] (Eterna round: R97, puzzle: Brourd's mod of Exclusion 4) | 22.4 | – | 17.8 | – | – | –
AAUAAAGGAGGAUAUACAUGAGGAUCACCCAUGUGAAUAAAAUAAAUAAAAUGAUAAAGUAGAAGGCCUAAUAA [JMF's solution 3] (puzzle: Exclusion 3) | – | – | – | 33.3 | 33.5 | 49.7
GGAGAGUCAGGAUAUCGAAGGUAGAGAAGAGGAGAGUGGUACGAGAAGGGACAUGAGGAUCACCCAUGUAGGUG [JR_Exclusion4)Sub011] (puzzle: Exclusion 4) | – | – | – | 645 | 457 | 452
AAGAUACAUGAGGAUCACCCAUGUGAGGAUAUGAGUCAGUCACGGUGACGUGGCUGACUCAGAAGGCACAAAGG [JL-ex1-4.36 salish99 mod] (Eterna round: R97, puzzle: Exclusion 1) | 176 | – | 110 | – | – | –
GGGCCCGGAGGAUAUACAUGAGGAUCACCCAUGUAUUUGGGCCCUAUUGGGCCCGGGUGUAGAAGGCCGGGCCC [-42.1, -39.5 kcal, A 19%, 5abis,0] (Eterna round: R97, puzzle: Exclusion 3) | 17.3 | – | 14.6 | – | – | –
CCUUGACAUGAGGAUCACCCAUGUUAGGAUAUAACAUUUGACACUACAGUAUGAAGUGUUAGAAGGGAUAUGGG [-22.5, -21 kcal, A 32%] (Eterna round: R97, puzzle: Exclusion 1) | 39.4 | – | 29.8 | – | – | –
GUAGAGUCAGGAUAUACAAGAUCGAUAGAUCAAAGACCCAUACAUGAGGAUCACCCAUGUAGAAGGGACUCUAC [Mat - Exclusion 2 - Eli Mod - D11] (Eterna round: R97, puzzle: Exclusion 2) | 23 | – | 18.7 | – | – | –
CUUUUUUUUGUGAGGAUAUACUGUUAUUAAAGUUAGUAGAAGGUACAUGAGGAUCACCCAUGUUAAUUACUCUA [JR_BME4_Sub049] (puzzle: Brourd's mod of Exclusion 4) | – | – | – | 14.2 | – | –
CUAAAUCAUGUAGGAUAUGCGUGGCGAAGCUAUGCAGAAGGACAUGAGGAUCACCCAUGUUCUUCCGUCUGCGUACAGACGGAA [JL ENG1 1.18] (Eterna round: R96, puzzle: Exclusion NG 1) | 316 | 28.7 | 38 | – | – | –
AUCAGUCUAGAGGAUAUGCUGGAUUAAUAUCUGGCAGAAGGCUGGACAUGAGGAUCACCCAUGUAAAUACUACC [Omei Ex6 A4] (Eterna round: R97, puzzle: Exclusion 6) | 156 | – | 55 | – | – | –
GUCAUGUAAGGAUAUCUUACAUGUGACUUCGGUCACUGUCAAGAGAAGGUACAUGAGGAUCACCCAUGUUCGAC [Ex4-3: 52] (puzzle: Exclusion 4) | – | – | – | 16.2 | – | –
CACCGUUACAGAGGAUAUGUUACAUGAGGAUCACCCAUGUAAUAAAUGAGAAUUUCGAAUGUAAUACAGAAGGCUGGAAUCGGC [Ostracism 75 - Jieux - Exclusion NG 2] (Eterna round: R96, puzzle: Exclusion NG 2) | 38.3 | 15.8 | 21.3 | – | – | –
UUAGAAUUGUUAGGAUAUUAAUUAUUUUUUAGUAUGAUCUACAUGAGGAUCACCCAUGUUAAAUAUAAGAAGGAACGUUAUAUU [JR_ExcNG2_Sub096] (Eterna round: R96, puzzle: Exclusion NG 2) | – | 49.9 | – | – | – | –
UGACAGUGAGGAUAUUAUCUGAGGGACAUGAGGAUCACCCAUGUGCACUCACGGGCCCAGUAAGAAGGCACGAGCU [EX5 B.23] (Eterna round: R97, puzzle: Exclusion 5) | 18.1 | – | 18.8 | – | – | –
AAUUCGAGAGGAUAUACAGGUGAUAUGUAGAAGCCUCGAGCACAUGAGGAUCACCCAUGUAGAAGGCUCAUAUA [EX2 A.11] (Eterna round: R97, puzzle: Exclusion 2) | 262 | – | 29.6 | – | – | –
